Assay results as given in PMC6509359.

What was measured:
[1] = molecular target: Chimera: Huma USP25 (157-[AIM of D. rerio USP28]-714) (human | zebrafish (Danio rerio)); assay: SEC-MALS; 100 μL of 1-2 mg/mL protein on Superdex 200 10/300, 0.5 mL/min, PBS + 2 mM DTT
[2] = molecular target: Chimera: Human USP25 (157-[Insert of Human USP28]-714) (human); assay: as above
[3] = molecular target: Chimera: Human USP28 (149-[Insert of Human USP25]-703) (human); assay: as above
[4] = molecular target: D. rerio USP28 (1-738,763-1187) (zebrafish (Danio rerio)); assay: not stated; oligomeric states of purified orthologs and of full-length proteins, Figures S7A, S7B and S3J
[5] = molecular target: D. rerio USP28 (138-684) (zebrafish (Danio rerio)); assay: as above
[6] = molecular target: G. gallus USP25 (174-726) (chicken (Gallus gallus)); assay: as above
[7] = molecular target: G. gallus USP25 (174-726)∼Ub-PA (chicken (Gallus gallus) | not stated); assay: as above

## Chimera: Huma USP25 (157-[AIM of D. rerio USP28]-714) (domain or fragment)
[1]
  stoichiometry N: 2

## Chimera: Human USP25 (157-[Insert of Human USP28]-714) (domain or fragment)
[2]
  stoichiometry N: 2

## Chimera: Human USP28 (149-[Insert of Human USP25]-703) (domain or fragment)
[3]
  stoichiometry N: 2

## D. rerio USP28 (1-738,763-1187) (enzyme)
[4]
  stoichiometry N: 2

## D. rerio USP28 (138-684) (domain or fragment)
[5]
  stoichiometry N: 2

## G. gallus USP25 (174-726) (domain or fragment)
[6]
  stoichiometry N: 4

## G. gallus USP25 (174-726)∼Ub-PA (from UniProt P0CG48 1-75) (complex)
[7]
  stoichiometry N: 2
